Results as given in patent US20060078875A1, “Genetic selection of small molecule modulators of protein-protein interactions” (The Penn State Research Foundation, priority 2004, published 2006).
One block for each molecule: values may come before it. Ends that are not written are not given here. Peptide text beside a SMILES is read from it.

Assays:
avian ATIC (AICAR Tfase) = biological target: T1, avian ATIC (AICAR Tfase) (Gallus gallus, UniProt P31335); test: AICAR Tfase assay
T1 sequence (P31335 1-593): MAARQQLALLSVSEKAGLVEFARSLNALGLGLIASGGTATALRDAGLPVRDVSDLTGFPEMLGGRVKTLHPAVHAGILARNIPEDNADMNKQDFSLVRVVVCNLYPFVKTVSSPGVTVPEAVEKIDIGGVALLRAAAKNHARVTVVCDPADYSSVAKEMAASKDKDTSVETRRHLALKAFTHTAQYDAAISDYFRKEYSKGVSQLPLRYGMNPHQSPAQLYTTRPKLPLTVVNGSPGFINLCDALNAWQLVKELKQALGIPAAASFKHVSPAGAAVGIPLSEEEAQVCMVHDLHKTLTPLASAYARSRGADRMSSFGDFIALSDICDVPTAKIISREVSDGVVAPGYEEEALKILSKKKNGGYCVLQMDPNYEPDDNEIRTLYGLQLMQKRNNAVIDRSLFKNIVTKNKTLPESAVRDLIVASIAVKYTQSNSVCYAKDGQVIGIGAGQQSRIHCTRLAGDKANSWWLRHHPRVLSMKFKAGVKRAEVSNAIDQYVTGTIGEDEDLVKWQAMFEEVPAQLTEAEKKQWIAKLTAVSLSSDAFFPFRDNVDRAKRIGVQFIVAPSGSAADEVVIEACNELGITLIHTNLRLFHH
Description: All assays were performed using a Varian Cary 100 Spectrometer. All reaction mixtures were 500 μl in volume and carried out in 1 cm pathlength quartz cuvettes at 25° C. The enzyme used in all of the inhibition studies was avian ATIC, fused to a N-terminal 6× histidine tag to facilitate purification. […] The peptides were dissolved in DMSO to a final concentration of 2.5 mM.
84 nM of ATIC, 50 μM of 10-f-THF and various quantities of inhibitor were mixed in the assay buffer (32.5 mM Tris-HCl, 25 mM KCl, pH 7.4). The mixture was incubated at 25° C. for 2 min before initiating the reaction by addition of 20 μM AICAR. The reaction was monitored by measuring the increase in absorbance due to formation of tetrahydrofolate at 298 nm.
The peptides were assumed to be competing with f-10-THF, which binds to ATIC and stabilizes its dimerization.

ATIC homodimer = biological target: T2, ATIC homodimer (Gallus gallus, UniProt P31335); test: ATIC RTHS ranking by spotting serial dilutions on selective media; format: cell-based; settings: cyclic peptides in order of biological activity (1 = most active)
T2 construct: expressed in transfected cells; host or cells: E. coli RTHS strain with the ATIC fusion integrated on the chromosome
T2 sequence (P31335 1-593): T1 sequence (P31335 1-593)
Description: ATIC was cloned as a fusion with the bacteriophage 434 repressor DNA binding domain (into pTHCP16, FIG. 1B) such that expression of the repressor-ATIC fusion placed under control of an isopropyl β-D-thiogalactoside (IPTG) inducible promoter. […] In order to improve selection conditions, a new RTHS strain was constructed by integrating the ATIC fusion onto the chromosome. The level of IPTG giving optimal repression was determined to be 50 μM by β-galactosidase assays.
The first SICLOPPS library transformed into the selection strain encoded a hexapeptide with five random residues and a cysteine nucleophile. Approximately 10^7 transformants were plated onto histidine-free minimal media supplemented with arabinose, (inducer for SICLOPPS) 3-amino-1,2,4-triazole (3-AT, competitive inhibitor of HIS3 product) and kanamycin at a density of 10^6 per plate (100×15 mm). The plates were incubated until colonies were readily visible (approximately one in 10^5). A second library encoding an octapeptide with five random residues and an invariable SGW motif was also tested (not shown). Around 200 colonies were picked and screened for arabinose dependent growth advantage and IPTG dependent inhibition of growth to eliminate false positives. The expected phenotype was further confirmed by isolating and retransforming the selected SICLOPPS plasmids into the selection strain. The 14 remaining cyclic peptides were then ranked for activity by spotting serial dilutions of the corresponding cells onto selective media, allowing the conferred growth advantage to be compared at each dilution level.
SICLOPPS libraries were transformed into E. coli strains containing integrated reporter and repressor constructs. Transformants were washed with minimal media A and plated on minimal media A supplemented with 13 μM L-(+)-arabinose, 2.5 mM 3-amino-1,2,4-triazole, 25 μM kanamycin and 50 μM IPTG. After incubation at 37° C. for 3-4 days, surviving colonies were restreaked onto the same media with and without arabinose. Plasmids from selected strains whose growth depended on the presence of arabinose were retransformed into the original selection strain and checked for phenotype retention. The variable insert regions on SICLOPPS plasmids were PCR-amplified, and their DNA sequence determined.

[1] = biological target: T3, ribonucleotide reductase large subunit (mR1) (Mus musculus, UniProt P07742); test: Immobilized peptide binding/competition ELISA with mR1; parameters: species or system murine; settings: P8 immobilized on maleimide plates
T3 construct: made in house; host or cells: E. coli BL21(λDE3) Rosetta, pET28a-MR1
T3 sequence (P07742 1-792): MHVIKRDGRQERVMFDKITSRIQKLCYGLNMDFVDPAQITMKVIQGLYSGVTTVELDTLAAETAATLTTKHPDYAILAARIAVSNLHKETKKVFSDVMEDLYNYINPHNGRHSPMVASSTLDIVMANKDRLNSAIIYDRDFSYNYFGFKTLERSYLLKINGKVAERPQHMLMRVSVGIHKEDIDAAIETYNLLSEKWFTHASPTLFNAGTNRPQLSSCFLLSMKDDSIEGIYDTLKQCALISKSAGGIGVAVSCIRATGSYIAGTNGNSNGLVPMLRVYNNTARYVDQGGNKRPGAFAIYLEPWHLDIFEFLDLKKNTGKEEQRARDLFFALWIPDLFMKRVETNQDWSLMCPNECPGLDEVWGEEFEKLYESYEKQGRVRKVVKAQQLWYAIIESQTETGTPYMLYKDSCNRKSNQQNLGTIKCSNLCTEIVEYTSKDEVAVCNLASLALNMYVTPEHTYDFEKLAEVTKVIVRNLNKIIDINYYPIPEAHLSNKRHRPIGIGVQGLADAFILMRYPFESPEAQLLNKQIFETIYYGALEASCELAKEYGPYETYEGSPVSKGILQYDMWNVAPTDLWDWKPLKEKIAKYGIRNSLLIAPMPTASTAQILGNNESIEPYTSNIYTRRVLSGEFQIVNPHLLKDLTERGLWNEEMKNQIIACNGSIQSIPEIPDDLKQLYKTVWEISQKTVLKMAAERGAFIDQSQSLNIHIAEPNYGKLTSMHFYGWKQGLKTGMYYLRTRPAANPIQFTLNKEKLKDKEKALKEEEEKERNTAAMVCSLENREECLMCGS
Description: (§1) FIG. 8B provides the results of an immobilized P8 ELISA.
(§2) Two variations of solid phase binding assays were used for analyzing the binding of peptide inhibitors to ribonucleotide reductase subunits: i) protein competition ELISA where peptides were competing with mR1 for binding to immobilized mR2, ii) binding and competition ELISA with covalently immobilized ligands. In general, the solid phase assays were performed in microtiter plates (MaxiSorp, Nunc) or strip units (Reacti-Bind™ Maleimide Activated Clear Strip Plates, Pierce) involving continuous agitation in Junior Orbit Shaker (Lab-line Instruments) at medium speed during all of the incubation steps. Sample volumes were 100 μL, unless specified otherwise. Following coating, blocking step was conducted by incubating pre-loaded wells with 5% bovine serum albumin in PBS for 1 h at room temperature. Wash procedures between any two successive incubations involved three washes with 200 μL of 0.5% Tween-20 in PBS (PBST), with the second wash involving a 5 min incubation. Detection of His-tagged proteins was performed with Ni·NTA-HRP conjugate (Qiagen) according to the manufacturer instructions.
(§3) Peptides (200 nmol per well) in 10% DMF/50 mM Tris·HCl (pH 7.5) with 1 mM TCEP were reacted for 2 h at room temperature with maleimide-derivatized polystyrene wells. The unreacted sites were blocked by incubating wells with 5 μM cysteine in 50 mM Tris·HCl (pH 7.5) for 30 min. Following washing and blocking steps, the wells were incubated with His-tagged mR1 or mR2 in the presence or absence of inhibitors. The retained protein was detected via Ni·NTA-HRP conjugate.
(§4) To determine the mechanism of action of the four identified sequences an alternative assay format was devised (FIG. 8A), where a peptide with a residual activity in its immobilized form can serve as a specific ligand for receptor capture in both binding and competition ELISA. The success of such an assay relies on both efficient peptide immobilization strategy and sufficient level of affinity, uncompromised by this display strategy. The peptide immobilization becomes feasible through implementation of a cysteine, a nucleophile used in splicing, as a universal chemoselective handle allowing covalent attachment strategy through a suitable electrophile. Chemoselective attachment of such peptides on appropriately derivatized surfaces should both display the small molecules for detection with a suitable protein receptor and allow binding site competition analysis, not unlike in a traditional immunosorbent format.

ribonucleotide reductase = biological target: T4, ribonucleotide reductase (Mus musculus, UniProt P07742+P11157); test: RTHS β-galactosidase (lacZ) assay, ribonucleotide reductase fusion in strain SNS126; format: cell-based, murine; settings: for Effect on the lacZ reporter upon arabinose induction: arabinose induction of peptide expression; for Effect on the lacZ reporter upon arabinose induction / lacZ repression relief: 100 μM IPTG; for lacZ repression relief: background level of peptide expression
T4 construct: expressed in transfected cells; host or cells: E. coli strain SNS126 (integrated via pAH68)
T4 sequence (P07742 1-792): T3 sequence (P07742 1-792)
T4 sequence (P11157 1-390): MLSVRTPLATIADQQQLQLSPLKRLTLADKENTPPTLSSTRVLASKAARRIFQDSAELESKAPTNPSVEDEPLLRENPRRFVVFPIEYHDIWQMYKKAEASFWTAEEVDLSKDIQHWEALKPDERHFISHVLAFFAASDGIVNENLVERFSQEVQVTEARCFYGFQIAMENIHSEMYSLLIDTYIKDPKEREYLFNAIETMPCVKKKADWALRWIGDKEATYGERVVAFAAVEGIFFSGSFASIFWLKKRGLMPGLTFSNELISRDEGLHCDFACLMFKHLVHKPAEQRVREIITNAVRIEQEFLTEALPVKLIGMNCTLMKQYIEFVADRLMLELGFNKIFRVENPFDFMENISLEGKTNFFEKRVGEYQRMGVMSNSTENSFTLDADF
Excerpt: FIG. 4 has two graphs (A and B) of β-galactosidase assays showing the effect of linear peptide inhibitors on the oligomeric state of HIV-1 protease and ribonucleotide reductase.
Positive (unrepressed strain) and negative (SICLOPPS control plasmid) controls are provided as reference points. […] FIG. 7C is a graph of competition ELISA results that compare the binding affinity of the four linear peptides with P8 control. FIG. 7D illustrates an exemplary solid phase synthesis of cyclic peptides. First, an activated disulfide resin is prepared through the protection of the thiol group of 3-mercaptopropionic acid, followed by coupling to an amino-PEGA resin. Next, a linear peptide is attached via a cysteine residue and cyclized with 1-ethyl-3-(3′-dimethylaminopropyl)carbodiimide (EDC) and 1-hydroxy-7-azabenzotriazole (HOAt) in DMF. Finally, reductive cleavage with tris-2-carboxyethylphosphine (TCEP) releases the cyclized peptide.
pTHCP30. […] ribonucleotide reductase subunit R1 was PCR amplified from a Bacuolovirus expression plasmid [Caras et al. (1985) J. Biol. Chem. 260:7015-7022] and cloned into SalI and SacI sites on pTHCP14, and subunit R2 was PCR amplified from pET3a-R2 and cloned onto pTHCP14-R1 plasmid at XhoI and KpnI sites [Mann et al. (1991) Biochemistry 30:1939-1947].
Overlapping oligonucleotides encoding […] (methionine plus eight R2 subunit C-terminal residues) (SEQ ID:15) were cloned into NcoI and XbaI sites on arabinose expression plasmid pAR [Perez-Perez et al. (1995) Gene 158:141-142].
Towards this goal, both enzyme complexes were probed with known linear peptidic inhibitors. These peptides are a C-terminal hexapeptide (FIG. 4A, pHIV16) for HIV protease that inhibits the essential β-sheet interactions [Schramm al. (1996) Antiviral Res. 30:155-170], and a heptapeptide for ribonucleotide reductase (pTHCP35, FIG. 4B) that competes with binding between subunits mR1 and mR2 [Yang et al. (1990) FEBS Lett. 272:61-64].
To address non-specific effects of selectants on host growth rates, three of the selective peptides (RR93, RR127, RR130) and the less discriminating RR133 were subjected to quantitative expression studies using the lacZ reporter of the RTHS. […] These studies necessitated in vitro analysis to decipher the inhibition mechanism of these four selectants.

[2] = biological target: T5, ribonucleotide reductase small subunit (mR2) (Mus musculus, UniProt P11157); test: Immobilized c-RR130 binding/competition ELISA with mR2; parameters: species or system murine; settings: data not shown
T5 construct: made in house; host or cells: E. coli BL21(λDE3), pET28a-MR2
T5 sequence (P11157 1-390): T4 sequence (P11157 1-390)
Description: as §1, §2, §3, §4

Ki (avian ATIC (AICAR Tfase)): 59 ± 6.8 µM | Activity Rank (ATIC homodimer): 1
Molecule: CSCC[C@@H]1NC(=O)[C@H](Cc2c[nH]c3ccccc23)NC(=O)CNC(=O)[C@H](CO)NC(=O)[C@H](C(C)C)NC(=O)[C@H](CC(N)=O)NC(=O)[C@H](CC(C)C)NC(=O)[C@H](Cc2ccccc2)NC1=O [c-151, M F L N V SGW] (cyclo(WMFLNVSG))

Disruption of / competition with immobilized P8·mR1 complex [1]: none | Effect on the lacZ reporter upon arabinose induction (ribonucleotide reductase): further enhanced | lacZ repression relief (ribonucleotide reductase): observable repression relief | Competition with the c-RR130·mR2 complex [2]: competed
Molecule: GVRFF (cyclic, SICLOPPS-expressed; Ribonucleotide reductase inhibitor peptide) [RR127]

Disruption of / competition with immobilized P8·mR1 complex [1]: none | Effect on the lacZ reporter upon arabinose induction (ribonucleotide reductase): further enhanced | lacZ repression relief (ribonucleotide reductase): observable repression relief | Competition with the c-RR130·mR2 complex [2]: competed
Molecule: HRYVF (cyclic, SICLOPPS-expressed; Ribonucleotide reductase inhibitor peptide) [RR133]

Activity Rank (ATIC homodimer): 3
Molecule: M L L I V C (MLLIVC) [c-25]

Repression of the lacZ reporter (ribonucleotide reductase; peptide co-expressed with ribonucleotide reductase fusion): relieved repression
Molecule: MSFTLDADF [pTHCP35, reference compound]

Activity Rank (ATIC homodimer): 3
Molecule: P V L L L C (PVLLLC) [c-26]

Activity Rank (ATIC homodimer): 2
Molecule: R F F I C C (RFFICC; also: cyclic peptide, ring type not given here) [c-4]

Activity Rank (ATIC homodimer): 2
Molecule: R I L Q L C (RILQLC) [c-8]

Activity Rank (ATIC homodimer): 3
Molecule: R I L V L C (RILVLC) [c-5]

Ki (avian ATIC (AICAR Tfase)): 142 ± 22.5 µM
Molecule: RYFNVC [l-1a, RYFNVC]

Disruption of / competition with immobilized P8·mR1 complex [1]: none | Effect on the lacZ reporter upon arabinose induction (ribonucleotide reductase): arabinose-dependent repression | lacZ repression relief (ribonucleotide reductase): observable repression relief | Competition with the c-RR130·mR2 complex [2]: competed
Molecule: RYYNV (cyclo(RYYNV); not fully specified) [RR130]

Activity Rank (ATIC homodimer): 3
Molecule: S M M V L C (SMMVLC) [c-15]

Activity Rank (ATIC homodimer): 3
Molecule: T V L M F C (TVLMFC) [c-6]

Ki (avian ATIC (AICAR Tfase)): 173 ± 28.4 µM
Molecule: WMFLNVSG [l-151]

Effect on the lacZ reporter upon arabinose induction (ribonucleotide reductase): further enhanced | lacZ repression relief (ribonucleotide reductase): observable repression relief
Molecule: YTWSY (cyclo(YTWSY); not fully specified) [RR93]
